This note sets out measurements from US5811393A (The Childrens Medical Center Corp., priority 1993, dated 1998).

For one assay, the system named is EGF receptors on BASMC. The assay is described as follows: Competitive [125I]EGF binding to bovine aortic smooth muscle cells. The protocol:
Competitive binding assays were used to measure this interaction and were performed as follows.

For assay [1], the system named is bovine aortic smooth muscle cells (BASMC). The assay is described as follows: Bovine aortic smooth muscle cell proliferation by cell counting. It is filed as cell-based. The conditions noted are these: 100 pg/ml; cells counted after three days, 1% calf serum. The protocol: Bovine aortic smooth muscle cell proliferation was also assayed by counting cell number following growth factor stimulation. In these experiments, cells were plated sparsely in 24 well plates in DMEM/10% bovine calf serum/1% GPS (100% GPS is glutamine 29.2 mg/ml, penicillin 10,000 units/ml, streptomycin sulfate 10,000 μg/ml; GIBCO, Grand Island, N.Y.) at 10^4 cells/well. Test samples were then added and, after three days, cells were removed by trypsinization and counted in a Coulter counter (Coulter, Hialeah, Fla.).
BASMC were plated in DMEM, 10% calf serum, 100 U/ml penicillin, 100 μg/ml streptomycin sulfate at 5×10^3 cells/well in a 24 well plate, and, after attachment of the cells (e.g., following an overnight incubation), the media was replaced with DMEM, 1% calf serum, and penicillin and streptomycin as above. HB-EHM, recombinant human EGF (Creative Biomolecules, Hopkinton, Mass.), or recombinant PDGF (Creative Biomolecules, Hopkinton, Mass.) was then added to the wells. Cells were counted after three days.

Assay [2] in a line: Heparin affinity chromatography (NaCl elution from immobilized heparin). It is filed as binding. The conditions noted are these: partially purified sample, 0.2-2M NaCl gradient, pH 7.5. From the text: Heparin affinity chromatography has been used extensively for purifying and characterizing a variety of these growth factors. Acidic FGF (aFGF) and basic FGF (bFGF) bind to immobilized heparin columns and are eluted with 1.0M to 1.2M NaCl and 1.5M to 1.8M NaCl, respectively (Folkman and Klagsbrun, 235 Science 442, 1987; Lobb et al., 261 J. Biol. Chem. 1924, 1986). Several growth factors which are structurally homologous to aFGF and bFGF also have an affinity for heparin (see, for example, Rubin et al., 86 Proc. Natl. Acad. Sci. USA 802, 1989). PDGF binds to immobilized heparin, but with relatively low affinity, being eluted with only 0.5M NaCl. […] Lobb et al. (261 J. Biol. Chem. 1924, 1986) report the partial purification by heparin affinity of two classes of growth factors mitogenic for endothelial cells. Gospodarowicz et al. (81 Proc. Natl. Acad. Sci. USA 6963, 1984) report the use of heparin affinity in the purification of bovine brain and pituitary fibroblast growth factors. Shing et al. (29 J. Cell Biochem. 275, 1985) report a chondrosarcoma-derived growth factor purified by heparin-Sepharose affinity chromatography and Bio Rex 70 cation exchange chromatography. […]
HB-EHM was purified as follows. Growth factor activity was monitored during the purification procedures using BALB/c mouse 3T3 cells as target cells and measuring [^3 H]-thymidine incorporation into DNA. […]

B1: HB-EHM: novel heparin binding growth factor with EGF-homologous segment, purified from U-937 lymphoma cell conditioned medium, about 22 kD (protein)
chain: RVTLSSKPQALATPNKEEHGKRKKKGKGLGKKRDPCLRKYKDFCIHGECKYVKELRAPSCICHPGYHGERCHGLS
modifications: O-linked glycosylation (suggested by O-glycanase treatment; the threonines predicted at positions 2 and 12 of the form first sequenced were not detected in protein sequencing)
Turning to B1, in the assay on EGF receptors on BASMC (BASMC, 6-well plates), the “50% inhibition of [125I]EGF binding” value was 63 pg/mL. Also, the “binding to EGF receptors on SMC” value in the assay with EGF receptors on BASMC (purified HB-EHM) was “found to bind”. Also, in assay [1], the “increase in BASMC proliferation” value is given as 2.5 fold. The “NaCl concentration eluting from the TSK-heparin column” value in assay [2] was 1 to 1.2 M.
